Source: US8703918

Target: prostate specific membrane antigen (PSMA) (human) (UniProt Q04609)
Experiment: FACS on LNCaP (PSMA+) cells; negative control, background signal

prostate specific membrane antigen (PSMA) (human), sequence (Q04609 whole entry): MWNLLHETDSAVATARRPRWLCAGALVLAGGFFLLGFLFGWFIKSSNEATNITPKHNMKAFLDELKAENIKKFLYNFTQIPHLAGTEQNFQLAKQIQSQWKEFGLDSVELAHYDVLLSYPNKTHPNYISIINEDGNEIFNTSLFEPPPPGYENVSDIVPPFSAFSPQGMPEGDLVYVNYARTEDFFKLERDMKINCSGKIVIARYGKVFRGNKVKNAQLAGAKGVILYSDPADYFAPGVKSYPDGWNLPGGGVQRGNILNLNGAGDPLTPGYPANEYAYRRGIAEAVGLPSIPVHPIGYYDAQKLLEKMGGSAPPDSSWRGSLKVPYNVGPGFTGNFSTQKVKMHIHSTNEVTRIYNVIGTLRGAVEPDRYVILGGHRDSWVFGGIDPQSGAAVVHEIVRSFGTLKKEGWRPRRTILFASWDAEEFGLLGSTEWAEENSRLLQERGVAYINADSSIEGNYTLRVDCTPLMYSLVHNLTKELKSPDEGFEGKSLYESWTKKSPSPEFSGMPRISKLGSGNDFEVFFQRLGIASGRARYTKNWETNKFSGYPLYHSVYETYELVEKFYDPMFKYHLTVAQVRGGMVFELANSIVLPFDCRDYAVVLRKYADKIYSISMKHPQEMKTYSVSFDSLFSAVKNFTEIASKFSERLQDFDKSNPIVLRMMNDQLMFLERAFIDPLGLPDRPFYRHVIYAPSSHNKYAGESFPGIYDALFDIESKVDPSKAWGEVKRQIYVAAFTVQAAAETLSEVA

MFI: 161 MFI
Substance: avidin-FITC
